{"source": "patent US20240335558A1", "about": "“ISOLATED POLYPEPTIDE AND USE THEREOF” (GLYCO-THERAPY BIOTECHNOLOGY CO., LTD., priority 2021, published 2024)", "molecules": {"B1": {"name": "HpFT-2HR: H. pylori α-1,3-fucosyltransferase variant: catalytically active domain, two heptapeptide repeat sequences and C-terminus fused His tag (protein)", "chain": "MFQPLLDAFIESASIEKMVSKSPPPPLKIAVANWWGDEEIKEFKKSVLYFILSQRYAITLHQNPNESSDLVFSNPLGAARKILSYQNTKRVFYTGENESPNFNLFDYAIGFDELDFNDRYLRMPLYYAHLHYEAELVNDTTAPYKLKDNSLYALKKPSHHFKENHPNLCAVVNDESDLLKRGFASFVASNANAPMRNAFYDALNSIEPVTGGGSVRNTLGYKVGNKSEFLSQYKFNLCFENSQGYGYVTEKILDAYFSHTIPIYWGSPSVAKDFNPKSFVNVHDFNNFDEAIDYIKYLHTHPNAYLDMLYENPLNTLDGKAYFYQDLSFKKILDFFKTILENDTIYHNNPFIFYRDLHEPLISIDDLRVNYDDLRVNYLEHHHHHH", "modifications": "Catalytically active domain of Helicobacter pylori Alpha-(1,3)-fucosyltransferase (GenBank No.AAD07710.1) with 2 heptapeptide repeats and a C-terminal His tag"}}, "format_in_all_cases": "biochemical", "key": {"[1]": {"tested_on": "Trastuzumab-(Galβ1,4)GlcNAc", "test": "HpFT-2HR and HpFT-4HR transferring GDP-FAmSucMMAE to Trastuzumab-(Galβ1,4)GlcNAc", "conditions": "donor 1 mM, enzyme 0.5 mg/mL, 30° C., 1 h and 2 h; FIG. 9", "protocol": "(§1) To 40 mM Tris-HCl (pH 7.5) buffer were added Trastuzumab-(Fucα1,6)(Galβ1,4)GlcNAc (2 mg/mL final), GDP-FAmP4Biotin (1 mM final), MgCl2 (20 mM final), and different HpFT enzymes (HpFT-4HR, HpFT-4HR(M4), HpFT-4HR(M7), HpFT-6HR, HpFT-3HR, HpFT-2HR, HpFT-1HR or HpFT-0HR) (0.5 mg/mL final) in sequence, and the resulting mixed solution was allowed to react at 30° C. for 1 h. Three parallels were set up for each group. After the reaction time point was reached, to the reaction solution was added 10 mM LacNA, and the reaction was terminated by a desalting column (Zeba™ Spin Desalting Columns/2 ml/40K, Thermo Fisher Scientific), and finally mass spectrometry was carried out and % of conversion was calculated. % of conversion=(MAR0 peak intensity*0+MAR1peak intensity*1+MAR2 peak intensity*2)/2* (MAR0 peak intensity+MAR1 peak intensity+MAR2 peak intensity)*100%.\n(§2) To 40 mM Tris-HCl (pH 7.5) buffer were added Trastuzumab-(Galβ1,4)GlcNAc (2 mg/mL final), GDP-FAmSucMMAE (1 mM final), MgCl2 (20 mM final), and HpFT-2HR or HpFT-4HR (0.5 mg/mL final) in sequence, and the resulting mixed solution was allowed to react at 30° C. for 1 h and 2 h. Three parallels were set up for each group. […]"}, "[2]": {"tested_on": "Trastuzumab-(Fucα1,6)(GalNAzβ1,4)GlcNAc", "test": "Transfer of GDP-FAmP4Biotin to Trastuzumab-(Fucα1,6)(GalNAzβ1,4)GlcNAc by different HpFTs", "conditions": "donor GDP-FAmP4Biotin 1 mM, enzyme 0.5 mg/mL, 30° C., 3 h; FIG. 3"}, "[3]": {"tested_on": "Trastuzumab-(GalNAzβ1,4)GlcNAc", "test": "HpFT-2HR and HpFT-4HR transferring GDP-FAmP4Biotin or GDP-FAzP4Biotin to Trastuzumab-(GalNAzβ1,4)GlcNAc", "conditions": "enzyme 0.5 mg/mL, 6 h, FIG. 6(B)", "protocol": "as §1\n(§3) To 40 mM Tris-HCl (pH 7.5) buffer were added Trastuzumab-(GalNAzβ1,4)GlcNAc (2 mg/mL final), GDP-FAmP4Biotin or GDP-FAzP4Biotin (1 mM final), MgCl2 (20 mM final), and HpFT-2HR or HpFT-4HR (0.5 mg/mL final) in sequence, and the resulting mixed solution was allowed to react at 30 t for 6 h. Three parallels were set up for each group. After the reaction time point was reached, to the reaction solution was added 10 mM LacNAc, and the reaction was terminated by a desalting column (Zeba™ Spin Desalting Columns/2 ml/40K, Thermo Fisher Scientific), and finally mass spectrometry was carried out and % of conversion was calculated. % of conversion was calculated according to Example 18."}, "[4]": {"tested_on": "Trastuzumab-G2F", "test": "HpFT-2HR and HpFT-4HR transferring GDP-FAmP4Biotin or GDP-FAzP4Biotin to Trastuzumab-G2F", "conditions": "enzyme 0.5 mg/mL, 30° C., 6 h, FIG. 6(A)", "protocol": "To 40 mM Tris-HCl (pH 7.5) buffer were added Trastuzumab-G2F (2 mg/mL final), GDP-FAmP4Biotin (1 mM final), MgCl2 (20 mM final), and different HpFT enzymes (HpFT-4HR, HpFT-4HR(M4), HpFT-4HR(M7), HpFT-6HR, HpFT-3HR, HpFT-2HR, HpFT-1HR, or HpFT-0HR) (0.5 mg/mL final) in sequence, and the resulting mixed solution was allowed to react at 30° C. for 3 h. Three parallels were set up for each group. After the reaction time point was reached, to the reaction solution was added 10 mM LacNAc (N-acetyl-D-lactosamine), and the reaction was terminated by a desalting column (Zeba™ Spin Desalting Columns/2 ml/40K, Thermo Fisher Scientific), and finally mass spectrometry was carried out and % of conversion was calculated. % of conversion=(MAR0 peak intensity*0+MAR1peak intensity*1+MAR2 peak intensity*2+MAR3 peak intensity*3+MAR4 peak intensity*4)/4* (MAR0 peak intensity+MAR1 peak intensity+MAR2 peak intensity+MAR3 peak intensity+MAR4 peak intensity)*100%.\nas §3, with “Trastuzumab-G2F” for “Trastuzumab-(GalNAzβ1,4)GlcNAc”, “30° C.” for “30 t”, “17.” for “18.”"}, "[5]": {"tested_on": "Durvalumab-(GalNAzβ1,4)GlcNAc", "test": "HpFT-2HR and HpFT-4HR transferring GDP-FAmSucMMAE to Durvalumab-(GalNAzβ1,4)GlcNAc", "conditions": "donor 1 mM, enzyme 0.5 mg/mL, 30° C., 3 h and 6 h; FIG. 8B", "protocol": "as §1\nas §2, with “added Trastuzumab-(GalNAzβ1,4)GlcNAc or Durvalumab-(GalNAzβ1,4)GlcNAc” for “added Trastuzumab-(Galβ1,4)GlcNAc”, “for 3” for “for 1”, “and 6” for “and 2”"}}, "data": [{"molecule": "B1", "values": [{"measurement": "activity in catalyzing the transfer of GDP-FAmSucMMAE, as compared with HpFT-4HR", "setting": "[1]", "value": "significantly improved activity"}, {"measurement": "catalytic activity among the HpFT variants", "setting": "[2]", "value": "relatively high catalytic activity"}, {"measurement": "catalytic activity as compared with HpFT-4HR (% of conversion)", "setting": "[2]", "value": "significantly improved catalytic activity"}, {"measurement": "activity in catalyzing the transfer of GDP-FAmP4Biotin relative to transfer of GDP-FAzP4Biotin", "setting": "[3]; donor 1 mM", "value": "significantly higher"}, {"measurement": "activity in catalyzing the transfer of GDP-FAmP4Biotin, as compared with HpFT-4HR", "setting": "[3]; donor GDP-FAmP4Biotin 1 mM", "value": "significantly improved activity"}, {"measurement": "activity in catalyzing the transfer of GDP-FAzP4Biotin, as compared with HpFT-4HR", "setting": "[3]; donor GDP-FAzP4Biotin 1 mM", "value": "significantly improved activity"}, {"measurement": "activity in catalyzing the transfer of GDP-FAmP4Biotin relative to transfer of GDP-FAzP4Biotin", "setting": "[4]; donor 1 mM", "value": "significantly higher"}, {"measurement": "activity in catalyzing the transfer of GDP-FAmP4Biotin, as compared with HpFT-4HR", "setting": "[4]; donor GDP-FAmP4Biotin 1 mM", "value": "significantly improved activity"}, {"measurement": "activity in catalyzing the transfer of GDP-FAzP4Biotin, as compared with HpFT-4HR", "setting": "[4]; donor GDP-FAzP4Biotin 1 mM", "value": "significantly improved activity"}, {"measurement": "activity in catalyzing the transfer of GDP-FAmSucMMAE, as compared with HpFT-4HR", "setting": "[5]", "value": "significantly improved activity"}]}]}
